Experimental data: patent publication US20180036405A1

Tests used:
[1] = target: EGFR on A431 epidermoid carcinoma cells (human) (UniProt P00533); assay: cell-based or functional assay
[2] = target: human dimeric EGFR (EGFR.mFc) (human); assay: SPR 37C, mAb captured by anti-human Fc, EGFR.mFc analyte
[3] = target: human monomeric EGFR (EGFR.mmh) (human) (UniProt P00533); assay: SPR 37C, mAb captured by anti-human Fc, EGFR.mmh analyte

Row | ADCC EC50 [1] [Molar] | IC50 of A431 Proliferation [1] [Molar] | Kd [2] [nM] | koff [2] [s⁻¹] | kon [2] [M⁻¹ s⁻¹] | t1/2 [2] [h] | Kd [3] [nM] | koff [3] [s⁻¹] | kon [3] [M⁻¹ s⁻¹] | t1/2 [3] [min] | Substance | Maximum Cell Killing (%) [1] [%]
1 | 1.86e-12 | 3.35e-10 | 0.0303 | 0.000108 | 3.55e+06 | 1.78 | 4.68 | 0.00738 | 1.58e+06 | 2 | Control I: a chimeric anti-EGFR antibody with heavy and light chain variable sequences of "mAb 225" as set forth in U.S. Pat. No. 7,060,808 | 24
2 | – | – | 0.0423 | – | – | 3.3 | – | – | – | – | Control II: a commercially available fully human monoclonal anti-EGFR antibody designated as ABX-EGF | –
